Data taken from PMC5827659.
Each block holds one substance with its values, some of them ahead of it.

Columns and labels:
Experiment in all cases: FRET (FIRE system)
[1] = biological target: FIRE construct Y-TMG-/C-TMG-CC1 L251S R304W, Q13586-1; settings: HEK 293 cells; n=39; parent: est. 0.084; read off a plot
[2] = biological target: FIRE construct Y-TMG-/C-TMG-CC1 R304K, Q13586-1; settings: HEK 293 cells; n=52; parent: est. 0.084; read off a plot
[3] = biological target: FIRE construct Y-TMG-/C-TMG-CC1α1α2 L251S R304W, Q13586-1; settings: HEK 293 cells; n=9; parent: est. 0.077; read off a plot
[4] = biological target: FIRE construct Y-TMG-/C-TMG-CC1α1α2 R304K, Q13586-1; settings: HEK 293 cells; n=18; parent: est. 0.077; read off a plot
Sequence of FIRE construct Y-TMG-/C-TMG-CC1α1α2 R304K, Q13586-1 (Q13586 whole entry R304K, looked up): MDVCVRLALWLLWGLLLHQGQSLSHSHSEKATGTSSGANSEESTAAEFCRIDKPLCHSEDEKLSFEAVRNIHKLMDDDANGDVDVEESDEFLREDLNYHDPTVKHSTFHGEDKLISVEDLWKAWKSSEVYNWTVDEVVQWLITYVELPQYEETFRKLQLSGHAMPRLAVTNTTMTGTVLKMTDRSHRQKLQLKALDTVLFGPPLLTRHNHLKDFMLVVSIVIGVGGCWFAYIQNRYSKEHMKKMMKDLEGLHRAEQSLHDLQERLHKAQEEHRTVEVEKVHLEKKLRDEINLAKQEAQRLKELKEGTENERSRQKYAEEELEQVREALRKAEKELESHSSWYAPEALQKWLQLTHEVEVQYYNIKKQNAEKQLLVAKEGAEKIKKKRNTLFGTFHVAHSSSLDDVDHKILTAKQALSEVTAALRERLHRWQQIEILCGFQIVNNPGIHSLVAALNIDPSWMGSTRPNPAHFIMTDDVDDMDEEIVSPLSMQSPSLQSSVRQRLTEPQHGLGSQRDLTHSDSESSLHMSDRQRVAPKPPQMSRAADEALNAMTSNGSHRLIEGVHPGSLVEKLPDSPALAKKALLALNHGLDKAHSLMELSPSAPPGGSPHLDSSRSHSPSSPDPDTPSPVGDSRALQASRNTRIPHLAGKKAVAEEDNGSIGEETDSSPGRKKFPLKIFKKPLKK

Sequence of FIRE construct Y-TMG-/C-TMG-CC1 R304K, Q13586-1 (Q13586 whole entry R304K, looked up): as above
Sequence of FIRE construct Y-TMG-/C-TMG-CC1α1α2 L251S R304W, Q13586-1 (Q13586 whole entry L251S/R304W, looked up): as the sequence (Q13586 whole entry R304K, looked up) above, with L251S, K304W counted along it
Sequence of FIRE construct Y-TMG-/C-TMG-CC1 L251S R304W, Q13586-1 (Q13586 whole entry L251S/R304W, looked up): as the sequence (Q13586 whole entry R304K, looked up) above, with L251S, K304W counted along it

Substance: FIRE construct Y-TMG-/C-TMG-CC1 (STIM1 CC1 233–343) wild type (from UniProt Q13586-1) L251S; R304W
- response [1]: 0.096 Eapp

Substance: FIRE construct Y-TMG-/C-TMG-CC1 (STIM1 CC1 233–343) wild type (from UniProt Q13586-1) R304K
- response [2]: 0.074 Eapp

- response [3]: 0.091 Eapp
Substance: FIRE construct Y-TMG-/C-TMG-CC1α1α2 (STIM1 233–309) wild type (from UniProt Q13586-1) L251S; R304W

- response [4]: 0.06 Eapp
Substance: FIRE construct Y-TMG-/C-TMG-CC1α1α2 (STIM1 233–309) wild type (from UniProt Q13586-1) R304K
